# Measurements taken from US20240010696A1.
# B1: mIL12 mutein-isotype (mouse IL-12 mutein fused to a human isotype (IgG1) control antibody) (protein, part only; not given: isotype control antibody, part only)
# chain: MWELEKDVYVVEVDWTPDAPGETVNLTCDTPEEDDITWTSDQRHGVIGSGKTLTITVKEFLDAGQYTCHKGGETLSHSHLLLHKKENGIWSTEILKNFKNKTFLKCEAPNYSGRFTCSWLVQRNMDLKFNIKSSSSSPDSRAVTCGMASLSAEKVTLDQRDYEKYSVSCQEDVTCPTAEETLPIELALEARQQNKYENYSTSFFIRDIIKPDPPKNLQMKPLKNSQVEVSWEYPDSWSTPHSYFSLKFFVGGGEKMKETEEGCNQKGAFLVEKTSTEVQCKGGNVCVQAQDRYYNSSCSKWACVPCRVRSGGGGGGSRVIPVSGPARCLSQSRNLLKTTDDMVKTAREKLEFYPCTAEDIDHEDITRDQTSTLKTCLPLELHKNESCLATRETSSTTRGSCLPPQKTSLMMTLCLGSIYEDLKMYQTEFQAINAALQNHNHQQIILDKGMLVAIDELMQSLNHNGETLRQKPPVGEADPYRVKMKLCILLHAFSTRVVTINRVMGYLSSA
# Biological target: mouse IL-12 receptor on cells (mouse) (UniProt Q60837)
# Assay: cell-based or functional assay
# mouse IL-12 receptor on cells (mouse), sequence (Q60837 20-738, chain 1 of 2): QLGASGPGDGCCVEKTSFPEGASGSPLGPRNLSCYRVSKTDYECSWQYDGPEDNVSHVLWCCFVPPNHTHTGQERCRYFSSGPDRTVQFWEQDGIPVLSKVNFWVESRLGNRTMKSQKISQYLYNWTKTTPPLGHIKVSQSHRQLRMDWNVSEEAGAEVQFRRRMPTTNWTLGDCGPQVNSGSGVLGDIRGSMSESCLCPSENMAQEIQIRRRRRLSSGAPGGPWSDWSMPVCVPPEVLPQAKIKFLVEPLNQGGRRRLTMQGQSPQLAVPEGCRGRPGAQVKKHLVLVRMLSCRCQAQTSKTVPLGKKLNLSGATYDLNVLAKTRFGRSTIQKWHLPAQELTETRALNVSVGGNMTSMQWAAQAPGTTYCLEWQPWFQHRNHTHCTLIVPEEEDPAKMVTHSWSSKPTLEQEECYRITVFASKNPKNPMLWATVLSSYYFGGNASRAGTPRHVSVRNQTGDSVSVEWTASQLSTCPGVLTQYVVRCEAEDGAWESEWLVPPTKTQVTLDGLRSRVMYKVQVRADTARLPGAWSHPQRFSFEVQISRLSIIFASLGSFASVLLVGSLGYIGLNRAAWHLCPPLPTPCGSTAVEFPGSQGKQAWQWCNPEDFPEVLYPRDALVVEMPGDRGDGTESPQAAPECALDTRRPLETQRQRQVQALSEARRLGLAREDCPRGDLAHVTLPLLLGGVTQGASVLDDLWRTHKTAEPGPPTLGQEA
# mouse IL-12 receptor on cells (mouse), sequence (P97378 24-874, chain 2 of 2, further chain): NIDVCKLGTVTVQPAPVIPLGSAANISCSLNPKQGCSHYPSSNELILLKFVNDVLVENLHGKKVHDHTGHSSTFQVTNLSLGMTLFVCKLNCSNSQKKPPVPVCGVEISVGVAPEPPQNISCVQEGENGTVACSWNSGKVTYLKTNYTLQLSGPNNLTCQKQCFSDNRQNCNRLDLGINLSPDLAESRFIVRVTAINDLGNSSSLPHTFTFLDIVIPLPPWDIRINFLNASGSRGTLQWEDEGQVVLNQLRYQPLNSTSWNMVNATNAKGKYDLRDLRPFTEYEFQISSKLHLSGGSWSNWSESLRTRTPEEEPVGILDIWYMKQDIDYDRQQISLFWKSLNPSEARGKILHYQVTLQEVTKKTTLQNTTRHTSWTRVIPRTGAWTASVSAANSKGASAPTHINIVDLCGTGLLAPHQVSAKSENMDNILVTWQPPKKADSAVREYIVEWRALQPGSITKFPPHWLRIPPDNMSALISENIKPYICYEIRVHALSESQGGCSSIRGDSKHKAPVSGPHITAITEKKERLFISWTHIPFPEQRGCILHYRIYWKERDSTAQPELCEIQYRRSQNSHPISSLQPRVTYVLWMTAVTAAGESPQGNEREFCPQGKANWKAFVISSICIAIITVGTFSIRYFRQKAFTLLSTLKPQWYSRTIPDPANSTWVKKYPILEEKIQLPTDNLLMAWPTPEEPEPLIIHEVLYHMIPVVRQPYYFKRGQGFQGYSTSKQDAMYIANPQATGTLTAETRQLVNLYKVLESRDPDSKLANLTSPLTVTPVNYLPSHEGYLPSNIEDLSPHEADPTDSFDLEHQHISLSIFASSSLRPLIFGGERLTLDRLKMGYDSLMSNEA
binder,measurement,value
B1,"Reduction in pSTAT4 production of 2) mutein IL-12 fused to isotype mAb as compared to 1) wild-type IL12 fused to isotype mAb (activated mouse CD4 T cells, flow cytometry)",23200 fold
